Measured values as given in publication PMC9651861 (Science Advances, 2022).

Target: T1, Trimeric His-Tagged SARS-CoV-2 Spike Glycoprotein, labelled with Alexa Fluor 647 (SARS-CoV-2, original (Wuhan-Hu-1) strain, UniProt P0DTC2, Alexa Fluor 647 (N-hydroxysuccinimide ester), estimated 13:1 dye to protein)
T1 construct: also called full trimeric spike protein; spike protein
Experiment: MST
Settings: both partners purified

B1: DesAb-HSA-P2 (VHH)
VHH: EVQLEESGGGLVQPGGSLRLSCAASGFNIKDTYIGWVRQAPGKGEEWVASIYPTSGYTRYADSVKGRFTISADTSKNTAYLQMNSLRAEDTAVYYCAAGSAQAGNAEEAEEEFDYWGQGTLVTVSS
B1: no binding (tested: 4 μM).
